Experimental data as given in patent publication US20210071114.

T1: FRET substrate GGGLG
T1 chain: GGGLG

T2: recombinant loricrin fused with a tag sequence (Recombinant Human Loricrin Protein; Abcam, ab114261)
T2 chain: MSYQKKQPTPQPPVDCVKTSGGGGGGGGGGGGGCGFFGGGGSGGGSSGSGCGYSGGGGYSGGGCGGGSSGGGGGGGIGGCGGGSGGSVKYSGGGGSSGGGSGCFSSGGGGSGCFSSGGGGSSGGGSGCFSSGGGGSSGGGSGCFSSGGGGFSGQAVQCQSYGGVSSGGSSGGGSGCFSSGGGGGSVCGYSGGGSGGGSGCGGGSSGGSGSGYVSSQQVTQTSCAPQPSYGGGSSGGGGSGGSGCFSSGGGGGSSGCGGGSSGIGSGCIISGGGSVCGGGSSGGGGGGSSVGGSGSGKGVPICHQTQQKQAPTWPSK

T3: keratin 10
T3 chain: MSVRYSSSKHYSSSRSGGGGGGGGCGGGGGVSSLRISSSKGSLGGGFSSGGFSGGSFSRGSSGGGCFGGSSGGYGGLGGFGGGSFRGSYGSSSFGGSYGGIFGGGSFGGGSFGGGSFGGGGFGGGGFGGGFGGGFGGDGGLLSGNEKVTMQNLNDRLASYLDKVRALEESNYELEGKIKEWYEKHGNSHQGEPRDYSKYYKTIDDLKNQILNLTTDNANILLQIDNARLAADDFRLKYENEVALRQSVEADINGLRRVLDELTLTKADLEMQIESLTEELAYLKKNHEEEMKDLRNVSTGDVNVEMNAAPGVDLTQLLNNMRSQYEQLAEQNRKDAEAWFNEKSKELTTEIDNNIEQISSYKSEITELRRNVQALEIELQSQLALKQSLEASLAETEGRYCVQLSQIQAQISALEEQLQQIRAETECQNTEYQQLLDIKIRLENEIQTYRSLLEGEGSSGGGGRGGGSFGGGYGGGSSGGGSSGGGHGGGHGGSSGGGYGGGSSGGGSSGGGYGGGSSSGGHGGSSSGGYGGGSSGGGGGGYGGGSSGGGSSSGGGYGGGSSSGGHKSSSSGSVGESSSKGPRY

T4: FRET substrate GGGYG
T4 chain: GGGYG

T5: FRET substrate GGGFG
T5 chain: GGGFG

T6: FRET substrate GGGSG
T6 chain: GGGSG

T7: FRET-GGGGG (FRET substrate having pentaglycine between Nma and Lys(Dnp))
T7 chain: GGGGG

B1: β-lytic metalloprotease (beta-lytic metallopeptidase; BLP) (protein)
chain: SPNGLLQFPFPRGASWHVGGAHTNTGSGNYPMSSLDMSRGGGWGSNQNGNWVSASAAGSFKRHSSCFAEIVHTGGWSTTYYHLMNIQYNTGANVSMNTAIANPANTQAQALCNGGQSTGPHEHWSLKQNGSFYHLNGTYLSGYRITATGSSYDTNCSRFYLTKNGQNYCYGYYVNPGPN
B2: Las A protein (LasA or LAS) (protein)
chain: APPSNLMQLPWRQGYSWQPNGAHSNTGSGYPYSSFDASYDWPRWGSATYSVVAAHAGTVRVLSRCQVRVTHPSGWATNYYHMDQIQVSNGQQVSADTKLGVYAGNINTALCEGGSSTGPHLHFSLLYNGAFVSLQGASFGPYRINVGTSNYDNDCRRYYFYNQSAGTTHCAFRPLYNPGLAL
B3: ALE-1 glycylglycine endopeptidase (ALE-1) (protein)
chain: STKVDAPKVEQEAPAKADAPKVEQEAPAKADAPKVEQEAPAKVDAPKVEQEAPAKVDAPKVEQEAPAKADAPKVEQKRTFVREAAQSNHSASWLNNYKKGYGYGPYPLGINGGNHYGVDFFMNVGTPVRAISDGKIVEAGWTNYGGGNEIGLVENDGVHRQWYMHLSKFNVKVGDRVKAGQIIGWSGSTGYSTAPHLHFQRMTNSFSNNTAQDPMPFLKSAGYGSNSTSSSNNNGYKTNKYGTLYKSESASFTANTDIITRLTGPFRSMPQSGVLRKGLTIKYDEVMKQDGHVWVGYNTNSGKRVYLPVRTWNESTGELGPLWGTIK
B4: Aeromonas hydrophila proteinase (AhP) (protein)
chain: AGGQFQLPWRQGYSWKANGAHSHTGSGYPYSSIDVSYDWPGWGGATYTVTAANSGTVTVFSRCQVRVTATNGWATNYYHMSGISVRSGDYVAADTPIGTYASNRNEALCEGGSSTGPHLHFSLLYNGVFQSLQGQRLSSYAVNVGASNYDDNCNRFWLYNQRNGQRYCAWQPLYNNGID
B5: proteinase K (Kanto Chemical Co., Inc., 34076-92) (protein)
chain: AAQTNAPWGLARISSTSPGTSTYYYDESAGQGSCVYVIDTGIEASHPEFEGRAQMVKTYYYSSRDGNGHGTHCAGTVGSRTYGVAKKTQLFGVKVLDDNGSGQYSTIIAGMDFVASDKNNRNCPKGVVASLSLGGGYSSSVNSAAARLQSSGVMVAVAAGNNNADARNYSPASEPSVCTVGASDRYDRRSSFSNYGSVLDIFGPGTSILSTWIGGSTRSISGTSMATPHVAGLAAYLMTLGKTTAASACRYIADTANKGDLSNIPFGTVNLLAYNNYQA
B6: Alcalase (registered trade name) (SIGMA, P4860) (protein)
chain: AQTVPYGIPLIKADKVQAQGFKGANVKVAVLDTGIQASHPDLNVVGGASFVAGEAYNTDGNGHGTHVAGTVAALDNTTGVLGVAPSVSLYAVKVLNSSGSGSYSGIVSGIEWATTNGMDVINMSLGGASGSTAMKQAVDNAYAKGVVVVAAAGNSGSSGNTNTIGYPAKYDSVIAVGAVDSNSNRASFSSVGAELEVMAPGAGVYSTYPTNTYATLNGTSMASPHVAGAAALILSKHPNLSASQVRNRLSSTATYLGSSFYYGKGLINVEAAAQ
B7: Savinase (registered trade name) (SIGMA, P3111) (protein)
chain: AQSVPWGISRVQAPAAHNRGLTGSGVKVAVLDTGISTHPDLNIRGGASFVPGEPSTQDGNGHGTHVAGTIAALNNSIGVLGVAPSAELYAVKVLGASGSGSVSSIAQGLEWAGNNGMHVANLSLGSPSPSATLEQAVNSATSRGVLVVAASGNSGAGSISYPARYANAMAVGATDQNNNRASFSQYGAGLDIVAPGVNVQSTYPGSTYASLNGTSMATPHVAGAAALVKQKNPSWSNVQIRNHLKNTATSLGSTNLYGSGLVNAEAATR

Target: T1, FRET substrate GGGLG

| Protein | Specific activity (U/mg) |
| --- | --- |
| B1 | 3 U/mg |
| B2 | 10 U/mg |
| B3 | 0 U/mg |
| B4 | 31 U/mg |

Target: T2, recombinant loricrin fused with a tag …

| Protein | Loricrin-degrading activity, SDS-PAGE and N-terminus sequencing of the remaining bands |
| --- | --- |
| B1 | none of the N-terminus amino acid sequences of the bands were the sequence of loricrin, the bands were inferred to be derived from the tag sequence |

Target: T3, keratin 10

| Protein | Mass spectrometry of the SDS-PAGE band of the enzyme-treated solution | Cleavage of keratin 10, concluded from SDS-PAGE bands and the mass spectrometry of the BLP sample |
| --- | --- | --- |
| B1 | the proteins contained in this band region were fragments of keratin 10 |  |
| B2 |  | BLP and other M23A subfamily enzymes cleaved the glycine-rich regions at both ends of the amino acid sequence of keratin 10 |
| B4 |  | BLP and other M23A subfamily enzymes cleaved the glycine-rich regions at both ends of the amino acid sequence of keratin 10 |

Target: T4, FRET substrate GGGYG

| Protein | Specific activity (U/mg) |
| --- | --- |
| B1 | 74 U/mg |
| B2 | 29 U/mg |
| B3 | 0 U/mg |
| B4 | 98 U/mg |

Target: keratin azure, which uses wool as a raw material (K8500)

| Protein | ΔA595 of the supernatant (property of degrading wool keratin) |
| --- | --- |
| B5 | The absorbance of the samples containing Savinase (registered trade name), Alcalase (registered trade name), or proteinase K was increased compared with that of the samples containing BLP, LasA, or AhP |
| B1 | The absorbance of the samples containing Savinase (registered trade name), Alcalase (registered trade name), or proteinase K was increased compared with that of the samples containing BLP, LasA, or AhP |
| B2 | The absorbance of the samples containing Savinase (registered trade name), Alcalase (registered trade name), or proteinase K was increased compared with that of the samples containing BLP, LasA, or AhP |
| B6 | The absorbance of the samples containing Savinase (registered trade name), Alcalase (registered trade name), or proteinase K was increased compared with that of the samples containing BLP, LasA, or AhP |
| B4 | The absorbance of the samples containing Savinase (registered trade name), Alcalase (registered trade name), or proteinase K was increased compared with that of the samples containing BLP, LasA, or AhP |
| B7 | The absorbance of the samples containing Savinase (registered trade name), Alcalase (registered trade name), or proteinase K was increased compared with that of the samples containing BLP, LasA, or AhP |

Target: keratin solution obtained from human heel corneum

| Protein | Enzymatic degradation of keratin, SDS-PAGE (CBB staining) |
| --- | --- |
| B5 | major bands were lost for the solutions containing Savinase (registered trade name), Alcalase (registered trade name), and proteinase K |
| B1 | bands were detected between the molecular weight marker of 37,000 and the molecular weight marker of 50,000 |
| B2 | bands were detected between the molecular weight marker of 37,000 and the molecular weight marker of 50,000 |
| B6 | major bands were lost for the solutions containing Savinase (registered trade name), Alcalase (registered trade name), and proteinase K |
| B3 | degradation of keratin was not observed for the solutions containing M23B subfamily enzymes ALE-1 and lysostaphin |
| B4 | bands were detected between the molecular weight marker of 37,000 and the molecular weight marker of 50,000 |
| B7 | major bands were lost for the solutions containing Savinase (registered trade name), Alcalase (registered trade name), and proteinase K |

Target: T5, FRET substrate GGGFG

| Protein | Specific activity (U/mg) |
| --- | --- |
| B1 | 83 U/mg |
| B2 | 19 U/mg |
| B3 | 0 U/mg |
| B4 | 51 U/mg |

Target: corneocyte-derived insoluble keratin (insoluble corneum fraction from the human neck)

| Protein | Degradation of corneocyte-derived insoluble keratin, SDS-PAGE (ruby staining) of the supernatant |
| --- | --- |
| B1 | A band was detected between the molecular weight marker of 37,000 and the molecular weight marker of 50,000 for all the solutions containing BLP, LasA, and AhP |
| B2 | A band was detected between the molecular weight marker of 37,000 and the molecular weight marker of 50,000 for all the solutions containing BLP, LasA, and AhP |
| B4 | A band was detected between the molecular weight marker of 37,000 and the molecular weight marker of 50,000 for all the solutions containing BLP, LasA, and AhP |

Target: T6, FRET substrate GGGSG

| Protein | Specific activity (U/mg) |
| --- | --- |
| B1 | 231 U/mg |
| B2 | 19 U/mg |
| B3 | 0 U/mg |
| B4 | 10 U/mg |

Target: T7, FRET-GGGGG (FRET substrate having …)

| Protein | Specific activity (U/mg) |
| --- | --- |
| B1 | 186 U/mg |
| B2 | 19 U/mg |
| B3 | 3 U/mg |
| B4 | 53 U/mg |
